Broadly, the Kd is the equilibrium constant for the complex coming apart. Lower therefore signals higher affinity. Usually koff stands for the first-order rate constant of dissociation. Read a low koff as slow dissociation. The term kon denotes the rate constant with which the complex forms. Higher therefore signals faster complex formation. For orientation: EC50 means the concentration needed to bring the measured effect to its halfway point.

Experiment [1] concerns the target T1, FTM-NN protein (membrane anchorless form of the Long fusion protein, 70 kDa) (human respiratory syncytial virus, …, UniProt P12568 26-524).
T1 construct: domain: membrane anchorless form of the fusion protein
Nature of the experiment: SPR (Biacore), FTM-NN immobilised.

The target in experiment [2] is hRSV (inactivated hRSV strain Long, Hytest #8RSV79), F protein on virus particles (human respiratory syncytial virus, …, UniProt P12568 26-574). Nature of the experiment: binding ELISA on coated hRSV (Hytest), anti-VHH detection.
Experiment [3] concerns the target T1, FTM-NN protein (membrane anchorless …). Nature of the experiment: competition ELISA on coated FTM-NN; competitor biotinylated Synagis Fab. In general terms: ELISA stands for enzyme-linked immunosorbent assay.
A further experiment deals with F protein of RSV A-2 (human respiratory syncytial virus, …, UniProt P03420 26-574). As to the kind of experiment: cell-based or functional assay.
In experiment [4] the target is F protein of RSV Long (RSV LONG M-2) (human respiratory syncytial virus, …, UniProt P12568 26-574). As to the kind of experiment: cell-based or functional assay.
Experiment [5] concerns the target authentic influenza antigen of A/PR/8/34 (ATCC VR-1469), serotype H1N1 (influenza A virus A/PR/8/34 (H1N1), UniProt P03452 18-565). Nature of the experiment: ELISA, coated authentic AIV antigen, E. coli culture supernatant, anti-c-myc-HRP.
Another experiment addresses F protein of RSV B-1 (human respiratory syncytial virus, …, UniProt P13843 26-574). As to the kind of experiment: cell-based or functional assay.
Experiment [6] deals with T2, Glycoprotein G of rabies virus strain CVS-11 (Challenge Virus Standard-11, ATCC VR 959) (rabies virus, strain CVS-11).
T2 chain: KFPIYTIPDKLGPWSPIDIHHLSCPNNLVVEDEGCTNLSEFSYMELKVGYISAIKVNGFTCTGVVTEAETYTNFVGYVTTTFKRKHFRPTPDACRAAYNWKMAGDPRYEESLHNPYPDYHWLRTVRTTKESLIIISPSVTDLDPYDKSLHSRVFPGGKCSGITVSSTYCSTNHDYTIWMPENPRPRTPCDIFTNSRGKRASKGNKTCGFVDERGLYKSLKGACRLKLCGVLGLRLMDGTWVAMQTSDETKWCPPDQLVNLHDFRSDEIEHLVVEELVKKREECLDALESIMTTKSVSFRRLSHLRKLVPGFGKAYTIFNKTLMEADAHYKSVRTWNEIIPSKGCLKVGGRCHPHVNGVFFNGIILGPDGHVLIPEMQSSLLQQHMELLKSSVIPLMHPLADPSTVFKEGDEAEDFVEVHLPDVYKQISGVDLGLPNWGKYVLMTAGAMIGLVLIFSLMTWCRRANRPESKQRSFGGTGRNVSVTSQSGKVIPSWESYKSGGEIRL
As to the kind of experiment: cell-based or functional assay.

B1: LG191D3 (VHH)
VHH: EVQLVESGGGLVQAGGSLRLSCEASGRTYSRYGMGWFRQAPGKEREFVAAVSRLSGPRTVYADSVKGRFTISRDNAENTVYLQMNSLKPEDTAVYTCAAELTNRNSGAYYYAWAYDYWGQGTQVTVSS
As to B1, in experiment [1], binding was characterised by a dissociation constant (Kd) of 1.9 nM, the koff is 0.0028 s⁻¹ and the kon turned out to be 1.5e+06 M⁻¹ s⁻¹. For the same molecule, the EC50 in experiment [2] was determined as 0.15 nM. This molecule returned an EC50 in experiment [3] of 5.9 nM. Also, in the experiment with F protein of RSV A-2, the “RSV neutralization IC50 (nM) (n = 2), A-2” value turned out to be 227 nM. The “RSV neutralization IC50 (nM) (n = 2), Long” value in experiment [4] amounted to 253 nM.

B2: RSVNC23 (VHH)
VHH: EVQLVESGGGLVQPGGSLRLSCAASGRTFSSIAMGWFRQAPGKEREFVAAISWSRGRTFYADSVKGRFIISRDDAANTAYLQMNSLKPEDTAVYYCAVDTASWNSGSFIYDWAYDHWGQGTQVTVSS
In experiment [1], B2 displayed a Kd of 0.92 nM, a koff of 0.00074 s⁻¹ and a kon of 800000 M⁻¹ s⁻¹. The EC50 in experiment [2] turned out to be 0.1 nM. The molecule further had an EC50 in experiment [3] of 2.3 nM. Also, the “RSV neutralization IC50 (nM) (n = 2), A-2” value in the experiment with F protein of RSV A-2 amounted to 109 nM. Also, in experiment [4], the “RSV neutralization IC50 (nM) (n = 2), Long” value is 144 nM.

B3: IV2 (VHH)
VHH: QVQLQESGGGLVQTGGSLRLSCAASGRTFGGYAMAWFRQAPRKGREFVASVTWNGGATDYAGSVKDRFTVSRDTANNTMYLQMNSLKPEDTAVYICGAASGYRSTDRLSDPGWTNYWGQGTQVTVSS
B3: the “Extinction at 450 nm in ELISA” value in experiment [5] came out at 0.048 extinction at 450 nm.

B4: IV7 (VHH)
VHH: QVQLQQSGGGLVQTGGSLRLSCAASGRTFGGYAMAWFRQAPGKGREFVAAVTWSAGTTNYAGSVKDRFTVSRDNANNTMYLQMNSLKPEDTAVYICGAASGYRSTDRLSEPAWINYWGQGTQVTVSS
As for B4, the “Extinction at 450 nm in ELISA” value in experiment [5] was 0.048 extinction at 450 nm.

B5: IV10 (VHH)
VHH: QVQLQESGGGLVQAGGSLRLSCATSGRPFGGYAMAWFRQAPGKGREFVAAVTWSAGTTNYAGSVKDRFTVSRDNANNTMYLQMNSLKPEDTAVYICGAATGYRSTDRLSDPNWVNYWGQGTQVTVSS
With B5, the “Extinction at 450 nm in ELISA” value in experiment [5] was determined as 0.047 extinction at 450 nm.

B6: RSVPMP15H8 (VHH)
VHH: EVQLVESGGGLVQAGGSLRLSCAASGRSFSNYVLGWFRQAPGKEREFVAAISFRGDSAIGAPSVEGRFTISRDNAKNTGYLQMNSLVPDDTAVYYCGAGTPLNPGAYIYDWSYDYWGRGTQVTVSS
As to B6, in experiment [1], binding was characterised by a dissociation constant (Kd) of 16 nM, the koff is 0.021 s⁻¹ and the kon worked out at 1.2e+06 M⁻¹ s⁻¹. The same molecule yielded an EC50 in experiment [2] of 0.83 nM. This molecule also showed an EC50 in experiment [3] of 39 nM. Besides, in the experiment with F protein of RSV A-2, the “RSV neutralization IC50 (nM) (n = 2), A-2” value worked out at 218 nM. The “RSV neutralization IC50 (nM) (n = 2), B1” value with F protein of RSV B-1 turned out to be 2340 nM. In addition, in experiment [4], the “RSV neutralization IC50 (nM) (n = 2), Long” value stood at 200 nM.

B7: RSVNC41 (VHH)
VHH: EVQLVESGGGLVQAGGSLSISCAASGGSLSNYVLGWFRQAPGKEREFVAAINWRGDITIGPPNVEGRFTISRDNAKNTGYLQMNSLAPDDTAVYYCGAGTPLNPGAYIYDWSYDYWGRGTQVTVSS
In experiment [1], B7 showed a Kd of 8.1 nM, a koff of 0.0067 s⁻¹ and a kon of 820000 M⁻¹ s⁻¹. In experiment [2], this molecule had an EC50 of 0.41 nM. In experiment [3], this molecule displayed an EC50 of 32 nM.

B8: LG191E4 (VHH)
VHH: EVQLVESGGGLVQAGGSLRLSCAASGPTFSADTMGWFRQAPGKEREFVATIPWSGGIAYYSDSVKGRFTMSRDNAKNTVDLQMNSLKPEDTALYYCAGSSRIYIYSDSLSERSYDYWGQGTQVTVSS
For B8, in experiment [1], the Kd is 0.27 nM, the koff turned out to be 0.00015 s⁻¹ and the kon was determined as 570000 M⁻¹ s⁻¹. Moreover, the EC50 in experiment [2] was 0.083 nM. Moreover, the “RSV neutralization IC50 (nM) (n = 2), B1” value with F protein of RSV B-1 worked out at 4330 nM.

B9: RSVPMP7B2 (VHH)
VHH: EVQLVESGGGLVQAGDSLRLSCAASGRTFSSYAMGWFRQAPGKEREFVAAISWSDGSTYYADSVKGRFTISRDNAKNTVYLQMNSLKPEDTAVYYCAADLTSTNPGSYIYIWAYDYWGQGTQVTVSS
In experiment [1], B9 showed a Kd of 1.1 nM, a koff of 0.00065 s⁻¹ and a kon of 570000 M⁻¹ s⁻¹. In addition, a half-maximal effect in experiment [2] (EC50) was put at 0.09 nM. For the same molecule, the EC50 in experiment [3] was found to be 1.9 nM. The “RSV neutralization IC50 (nM) (n = 2), A-2” value with F protein of RSV A-2 came out at 177 nM. Further, the “RSV neutralization IC50 (nM) (n = 2), B1” value with F protein of RSV B-1 was 2690 nM. Besides, the “RSV neutralization IC50 (nM) (n = 2), Long” value in experiment [4] came out at 91 nM.

B10: 213H7-15GS-214 F8 (VHH)
chain: EVQLVESGGGLVQAGGSLRLSCAASGRTLSSYRMGWFRQAPGKEREFISTISWNGRSTYYADSVKGRFIFSEDNAKNTVYLQMNSLKPEDTAVYYCAAALIGGYYSDVDAWSYWGPGTQVTVSSGGGGSGGGGSGGGGSEVQLVESGGDLVQAGGSLRLSCVASGSTYSINAMGWYRQAPGKLRELVAAFRTGGSTDYADSVKGRFTISRDTAKNTVYLQMNSLKPEDTAVYYCNAEVIYYPYDYWGQGTQVTVSS
As to B10, in experiment [6], the “CVS neutralizing antibody titre, nM IC50 (RFFIT)” value came to 0.33 nM and the “Potency (IU/nM) increase versus monovalent (RFFIT)” value came out at 271 fold.

B11: RSVPMP15B3 (VHH)
VHH: EVQLVESGGGLVQPGGSLRLSCAASGLTLDYYALGWFRQAPGKEREGVSCISSSDHSTTYTDSVKGRFTISWDNAKNTLYLQMNSLKPGDTAVYYCAADPALGCYSGSYYPRYDYWGQGTQVTVSS
In experiment [1], B11 registered a Kd of 0.67 nM, an off-rate constant (koff) of 0.00027 s⁻¹ and a kon of 410000 M⁻¹ s⁻¹. The molecule further returned an EC50 in experiment [2] of 0.058 nM. Besides, in the experiment with F protein of RSV B-1, the “RSV neutralization IC50 (nM) (n = 2), B1” value turned out to be 1270 nM.

The values are drawn from US20200123233A1 (published 2020).
